In test [1] the target is HLA-C*15:02. As to the kind of experiment: IEDB peptide-MHC binding, purified MHC/direct/fluorescence; filed as Kd, often an IC50 or EC50 that approximates it; ≥ and ≤ were set here for values at or beyond the usual limits of such assays. The settings on record: source organism: Bacillus anthracis str. A0488.
Test [2] deals with HLA-A*03:19. In words: IEDB peptide-MHC binding, purified MHC/competitive/fluorescence; filed as Kd, often an IC50 or EC50 that approximates it; ≥ and ≤ were set here for values at or beyond the usual limits of such assays. The settings on record: source organism: Bacillus anthracis str. A0488.
The target of test [3] is HLA-A*24:03. The test is described as above. The settings on record: source organism: Bacillus anthracis str. A0488.
The target in test [4] is HLA-A*32:07. Described as above. To be noted: source organism: Bacillus anthracis str. A0488.
The target of test [5] is HLA-B*15:42. The description is as above. The settings on record: source organism: Bacillus anthracis str. A0488.
In test [6] the target is HLA-B*27:20. Described as above. The settings on record: source organism: Bacillus anthracis str. A0488.
Test [7] has as its target HLA-B*40:13. Described as above. The settings on record: source organism: Bacillus anthracis str. A0488.
The target in test [8] is HLA-B*45:06. The description is as above. To be noted: source organism: Bacillus anthracis str. A0488.
In test [9] the target is HLA-B*83:01. The description is as above. The settings on record: source organism: Bacillus anthracis str. A0488.
Test [10] has as its target HLA-C*06:02. The test is described as above. The settings on record: source organism: Bacillus anthracis str. A0488.
The target in test [11] is HLA-A*01:01. The test is described as above. To be noted: source organism: Mycobacterium leprae.
The target of test [12] is HLA-A*02:01. Described as above. To be noted: source organism: Mycobacterium leprae.
Test [13] has as its target HLA-A*02:03. The test is described as above. To be noted: source organism: Mycobacterium leprae.
The target of test [14] is HLA-A*02:06. The test is described as above. To be noted: source organism: Mycobacterium leprae.
Test [15] has as its target HLA-A*11:01. The description is as above. To be noted: source organism: Mycobacterium leprae.
Test [16] deals with HLA-A*26:02. The test is described as above. The settings on record: source organism: Mycobacterium leprae.
Test [17] concerns the target HLA-A*26:03. Described as above. The settings on record: source organism: Mycobacterium leprae.
Test [18] has as its target HLA-A*30:01. Described as above. The settings on record: source organism: Mycobacterium leprae.
The target in test [19] is HLA-A*31:01. The test is described as above. The settings on record: source organism: Mycobacterium leprae.
Test [20] addresses HLA-A*68:02. The test is described as above. The settings on record: source organism: Mycobacterium leprae.
Test [21] has as its target HLA-A*69:01. The description is as above. The settings on record: source organism: Mycobacterium leprae.
The target of test [22] is HLA-B*07:02. Described as above. To be noted: source organism: Mycobacterium leprae.
For test [23], the target named is HLA-B*08:01. The test is described as above. To be noted: source organism: Mycobacterium leprae.
In test [24] the target is HLA-B*08:02. Described as above. The settings on record: source organism: Mycobacterium leprae.
The target in test [25] is HLA-B*08:03. Described as above. The settings on record: source organism: Mycobacterium leprae.
The target in test [26] is HLA-B*15:01. The test is described as above. The settings on record: source organism: Mycobacterium leprae.
Test [27] has as its target HLA-B*15:17. Described as above. To be noted: source organism: Mycobacterium leprae.
The target of test [28] is HLA-B*18:01. The description is as above. To be noted: source organism: Mycobacterium leprae.
In test [29] the target is HLA-B*27:05. The description is as above. The settings on record: source organism: Mycobacterium leprae.
Test [30] concerns the target HLA-B*35:01. Described as above. The settings on record: source organism: Mycobacterium leprae.
Test [31] has as its target HLA-B*40:01. The test is described as above. The settings on record: source organism: Mycobacterium leprae.
For test [32], the target named is HLA-B*46:01. The description is as above. The settings on record: source organism: Mycobacterium leprae.
The target of test [33] is HLA-B*48:01. Described as above. To be noted: source organism: Mycobacterium leprae.
Test [34] deals with HLA-B*57:01. The test is described as above. To be noted: source organism: Mycobacterium leprae.
The target in test [35] is HLA-B*58:01. The description is as above. The settings on record: source organism: Mycobacterium leprae.
Test [36] concerns the target HLA-B*15:02. In words: IEDB peptide-MHC binding, purified MHC/direct/fluorescence; filed as Kd, often an IC50 or EC50 that approximates it; ≥ and ≤ were set here for values at or beyond the usual limits of such assays. The settings on record: source organism: dengue virus type 1.
Test [37] deals with HLA-B*46:01. The test is described as above. To be noted: source organism: Dengue virus.
In test [38] the target is HLA-A*30:02. As to the kind of experiment: IEDB peptide-MHC binding, purified MHC/competitive/radioactivity; filed as Kd, often an IC50 or EC50 that approximates it; ≥ and ≤ were set here for values at or beyond the usual limits of such assays. The settings on record: source organism: Dengue virus 1 Brazil/97-11/1997.

In general, Kd refers to the concentration at which binding is half-saturated. For the sequence RFFKHFMSL, the Kd was 1.57 µM in [1]; 0.0461 µM in test [2]; at most 0.0001 µM in test [3]; 0.0004 µM in test [4]; at least 5 µM in [5]; 0.0161 µM in test [6]. Moreover, the Kd in test [7] was 0.0052 µM; in test [8], at least 5 µM; in test [9], at least 5 µM; in test [10], 1.19 µM.

Regarding TVGYMYIMK, the Kd in test [11] was at least 20 µM; in test [12] it was at least 20 µM; in [13] it was at least 20 µM; in test [14], at least 20 µM; in test [15], 0.0049 µM; in test [16] it was at least 20 µM. Further, the Kd was at least 20 µM in [17]; 0.0488 µM in test [18]; at least 5 µM in [19]; at least 20 µM in [20]; at least 20 µM in [21]; at least 20 µM in test [22]. The Kd in test [23], in test [24], in test [25], in test [26], in [27] and in test [28] was at least 20 µM in each case. In addition, the dissociation constant (Kd) in [29], in test [30], in test [31], in [32], in test [33] and in test [34] was at least 20 µM each time. In [35], this sequence showed a Kd of at least 20 µM.

As for KLEGKIVQY, the Kd was at least 20 µM in test [36], at least 20 µM in [37] and 0.833 µM in test [38].

Values taken from the Immune Epitope Database (IEDB).
